# From paper PMC3435532
# Experiments:
# acetyl-FLI1-CTD = test: EMSA; conditions: acetylated by CBP HAT; 1 ug protein, 500 fmol probe; Non-radioactive EMSA: 1 ug protein, 500 fmol biotinylated dsDNA, binding buffer per Uren et al. 2004 (not given); 6% gel in 0.5x TBE; protein stock 20 mM …
# [1] = system: FLI1-CTD (C-terminal FLI1 domain, non-acetylated); test: EMSA; conditions: Non-radioactive EMSA: 1 ug protein, 500 fmol biotinylated dsDNA, binding buffer per Uren et al. 2004 (not given); 6% gel in 0.5x TBE; protein stock 20 mM …
substance,measurement,setting,value
ets-binding site oligonucleotide (wild type),binding signal (fold vs non-acetylated FLI1-CTD),acetyl-FLI1-CTD,4
same,"binding signal (fold (reference, non-acetylated))",[1],1
